Laboratory results reported in the domain aggregation screens of Martell et al. (2025).

Assay: soluble fraction after stress (log2 fold change); higher = more stays soluble; pooled small domains, quantitative proteomics
Conditions: stress: 50 degC
Outline: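 The stress applied to every library was 50°C. These custom libraries of small protein domains were pooled and measured at high throughput with quantitative proteomics as the read-out. Aggregation propensity is expressed as the base-two logarithm of the fold change in how much of each protein remains soluble. The higher the value, the more of that protein stays in solution.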

Sequence	soluble fraction (log2)
HMDTNVKLLSPKQADFFASKLANNQNFSSKFAKVGEDMQPFIERISSELQQDISQVIVYMPYLLESGFKQ	0.0782
HMDTNVPVPNVNGMTLNQAKAALEAAGFHVAVNWLGEKSDNNSVISYEPNGSAAKGTTITITVIAQPEQDG	0.0386
HMDTPPGLSPEEQAIIDIITTRGDATINELTASIDIPTPRLMGMLVDMEFRSLIAAIPGGRYRI	-1.16
HMDTRQFWEQWVADEIRTFEHKDRKQLFGWFEGNKPKLGQMKKLGYGDLLTKVQTSWDEIYQQKE	0.124
HMDTRSSARKALDAVNLLLETYGAKAYQHSYEIAGRRQQFQTPGDFMAFRSRLMAEVATEENAARINA	0.152
HMDTSKIDYSEFITMLDKGEVESVVLKSDTLTVTLKHGTGMAAQTKTVTLMEDLSELTKRLEKAGVKSFDK	0.306
HMDTVIAEVTASILNLRRSAGTSSDIIGKLNKGEKVSIIGGSGNWKNVRTSGGITGWVYHEYLSTY	-0.623
HMDTYDSIDSILEERHLSRRKLAQAIGLPPSTFQSMMSRKSGMTLEVLMKIVSYLQVSPDAFW	-2.12
HMDVAWDAIKAKLKEVVDAEDKAHPLNDDQIVKALGESGITIARRTIAKYRDLLGIPPARKRKA	0.0649
HMDVIGLEAAKSAAVKDAGISSPTFTKATLDRDDGRSLYEIEFISGSTKYEYDIDALTGSVLSKKTRALS	-0.112
HMDVKPWERQEGESAKAFEAFTIYAGLGADRSLRAVAQQLGKSKTLMDRWSSTYSWVARAAEYDADLQRK	-0.575
HMDVLFGNRLRQLLDERNISQAHFADRIGVSRSRMNNYVAQRSEPDYATLIRIANTLDTSIDFLLGKS	-1.93
HMDVLIQEIGKRLRIQRLAMGLTQEELAKRAGISLSTLKLMEQQGKGSLQRLAKVAVVLDLDGDLRGLF	-2.42
HMDVLKVFSHNVRRYRTQLGLSQETVAFRTGLHRTYISAVERGKRSISLDNIQKIADALEVETYLLFI	-1.72
HMDVLNPGDKAVTTASWLNFRTGPGMQNKVASVLARNTTVNIIEKSNEWYKVSLANGSTGYVHGMYLSKIT	-0.0937
HMDVLSQYGSRGEEVGKIQTRLKSWGYFSGEVTGYYGSQTTEAVKRFQQKHGLSATGVADRKTLELIGIS	-0.108
HMDVLTARENEVLQLLAKGMSNKEIASVLVITEKTVKAHVSSILSKLNLSDRTQAALYAVKNGI	-0.151
HMDVNMLVTGMLHKGEKSFVRVSFLRGKDWAEGIVPDAKIEKSQGFMEEEVARLEAYLLEQKSMIMEQA	-1.32
HMDVQGFVMDLDKPLDKEPIVEGFELKLEDSLTLVAAVNKDKSINSLFDELSKLGIKVKSMRNPP	-0.0252
HMDVQNLTKKNQEFINIVTHQLLQSGKSDEDIQTILAKTLPEIIEKQKQGIPARSFLGAPTAWAAQFI	0.133
HMDVRLAKVYMLPANPYLRFIEFDDGTHGKFRAKPGKFGLGSVVKVKREDGDMYTLEGNYDGKDRL	-0.555
HMDVSPVRLIREARGLSQVEVAKAAGLSRAAYQNIEVGKTVPRASTMVNIARALGVSMDDLLAPV	-0.251
HMDVSVPDVTGTRLDRAQSLLEAQGLTLGKVEEFFHATEPAGIVYDQEPRPGTRVDEGTAISVSVSKGPEA	0.0552
HMDWFDELKVSTDDSGRVTAPEESEFMFQTSNEKIFAGGDMVRGSDLVVTAIWEGRQAAEGIMDYLD	-0.16
HMDWPDDETIARIYALIKSDISSQARKVMELRFSEGMPFARIAAAMGISETAVYRHLSHALTVIRQKLN	-2.06

Sequence	soluble fraction (log2)
HMDWREMTAWMAELLKRRTGDDVETWNARVRESGAHDEASLRAWLTEQGVTGYAQTLLVMERFGYPDFF	-1.22
HMDYADISYKIFMNHIKNGQVERVELSGDPRIMGKLKDGTYFVTDNPRTENFKEFLLLNNVQVIETN	0.43
HMDYEVPEELQQKFEEFPRLKEAFYQLTPGRQHQYLYYFSQAKRSQTRYNRIDKYMNAILQGKGMK	-0.991
HMDYINALTTAGITDAKVIVTAPFDVSGTAALTGIYKAYEDITGSSLNEIAKAVGVEELITTGNLA	0.0392
HMDYKAELDNIIRDHLDMEGPLLPVLHAVMARFSYIPKDAIPIIARKLNLSSAEVSGVISFYHDFKKEK	-0.561
HMDYKYYIVKEPMVVKNLELPVGTRIVYFNTSLFGDSESSRPLKEKNIYQIFFPDDKPLIWGGVPVSLIER	-1.97
HMDYNLTKNQKIVFNLLQNSGEPLKAYTILESLKREGLKSPLQVYRALDKLVELGIIHKIESQNSFI	-0.45
HMDYNMEEWSLTADQLKSGDTILILNLGKTATLLESTRGKKNVRVRMGNIKTIVETSSIRGNPHQ	-0.878
HMDYPFQYFNYSHLRILGVPAQLIKAVRKAPTLDAIEQLSGLSEKTKLWLLELATEPKLEDVLFDPGR	-1.44
HMDYRSMSGLQKAALLIMSVGEETAAKLFQLMHDDEIREISQTMANLGTVNATVIERLFVEFADAISS	-0.966
HMDYVKTLGETINVRVAASTDADIYKLLPGGEILNRVGYNEEWTKVMVDGSTFYVYSEYVIQTEPPA	-1.37
HMDYYSILGVDRNATGEDIKKAFKKKAMKYHPDRNPDNKESERKFKEAKEAYDTLSNPQKKSMYDQFGT	0.0734
HMEAEDLRDWVGARGIAYTALRPAGIAVVNGRRVDVVSEGAFVNRDDPVEVVRVEGRRIVVKP	-0.143
HMEAGTEYVERAADYIRSHFQEDLTVSKLALYVGLNRSYLTTVFQNTLHVSPQQFLMRFRMERAAQLLD	0.0719
HMEAGTVTVTHAAVYIRSGPGVSYPIAGKAAKNDTYTVLQKDGDWFQIRLPQGNTGWIAGWLVETGT	-0.635
HMEAISIYPNPTDNELHLSTSVQEVRIYNMYGIEVTRAANTDRLAVSHLPKGVYLVHADGAVLKMIK	-1.26
HMEAISSESIKKMIKSYVSGEDASKPLSDQQIADLLVKEGYMISRRTVAKYRDELGILSSSKRKR	-0.0456
HMEAKQMDAWIVSEAKRQGGKIEPAAAYELSRHTATDTSIASQEIAKLLMYVDFKRPVTREDVVELVSA	0.176
HMEALPELTDRQRQVYEFIEARIAEWGYPPTIREIGQHLGIKSTNGVADHLKALKRKGYLQQ	-0.0721
HMEALTPREREVLTLMGQGRSNAEIATLLSIAPRTAKVHVQNILSKLGATNRTEAVSLAVRQGLIS	0.301
HMEASVNAPMPGKIVSVSVSEGQQVNAGDVLLILEAMKMQNEITADAAGTVKAINVNAGQSVKNGDSLVIL	0.469
HMEAVGLTPRQGDVLALLLQGKPNKLIARDLNLSVETVKDHVAAVLRALGVSTRTQAVLAVSQMQQQAAQ	-0.248
HMEAVLTISPGMYSESVSAELVRLGIITNQKEFNSYLVNNGYAERIQTGDFKIKADMSYDEIARIITK	0.231
HMEAYDTMEDRTTLAPGFAKLDKRERYILHLRFFEGLTQSQIAERVGISQMHVSRLIRRSLEKLREEIGD	-0.671
HMEAYSAEAVRFRIKAMIESETVDDVMSDDKIVERLLADGVDIARRTVAKYREAMNIPSSVKRRRKLKGM	-1.53
